The text below walks through data of the nanobody polyreactivity screen of Harvey et al. (2022).

The nature of this data set: yeast display, Sf9 membrane polyspecificity reagent, FACS + sequencing; frameworks hold sequencing errors. In short, it runs like this: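 Genes from sorted yeast were amplified by colony PCR, read by MiSeq 2 × 250 sequencing and filtered on CDR length. These cells carried a synthetic nanobody library in Saccharomyces cerevisiae BJ5465 and were sorted by FACS into low and high (top ~1%) gates on anti-HA and streptavidin fluorescence. Polyreactivity is labelled according to the gate of origin.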
For the sequence “QVQLVESGGGLVQAGGSLRLSCAASGSIFPSYAMGWYRQAPGKERELVAAISRSAGSTYYADSVKGRFTISRDNAKNTVYLQMNSLKPEDTAVYYCAADGYSSRYRYDYWGQGTQVTVSS”, the “polyreactivity (PSR sort gate)” value is reported as “low polyreactivity”.
With “QVQLVESGGGLVQAGGSLRLSCAASGSIFPSYAMGWYRQAPGKERELVAAISSSGGSTYYADSVKGRFTISRDNAKNTVYLQMNSLKPEDTAVYYCATRYRRWSTVVQDDYWGQGTQVTVSS”, the “polyreactivity (PSR sort gate)” value is “low polyreactivity”.
Regarding “QVQLVESGGGLVQAGGSLRLSCAASGSIFPSYAMGWYRQAPGKERELVATIGRGGTTNYADSVKGRFTISRDNAKNTVYLQMNSLKPEDTAVYYCNAERIWRYKYGYDYWGQGTQVTVSS”, the “polyreactivity (PSR sort gate)” value is given as “high polyreactivity”.
In the case of “QVQLVESGGGLVQAGGSLRLSCAASGSIFPVNAMGLYRQAPGKERELVAAITASGDSTYYADSVKGRFTISRDNAKNTVYLQMNSLKPEDTAVYYCNADGSYENREVYSFYYWGQGTQVTVSS”, the “polyreactivity (PSR sort gate)” value is “low polyreactivity”.
For the sequence “QVQLVESGGGLVQAGGSLRLSCAASGSIFPVYAMGWYRQAPGKERELVAAITWRSGSTYYADSVKGRFTISRDNAKNTVYLQMNSLKPDDTAVYYCAKVPTYRFDHWGQGTQVTVSS”, the “polyreactivity (PSR sort gate)” value was “high polyreactivity”.
As to “QVQLVESGGGLVQAGGSLRLSCAASGSIFPWYAMGWYRQAPGKERELVAAISTGGSTYYADSVKGRFTISRDNAKNTVYLQMNSLKPEDTAVYYCAAAYGKYRFGYWGQGTQVTVSS”, the “polyreactivity (PSR sort gate)” value was “high polyreactivity”.
The result for “QVQLVESGGGLVQAGGSLRLSCAASGSIFPYNAMGWYRQAPGKERELVAAISISGGSTYYADSVKGRFSISRDNAKNTVYLQMNSLKPEDTAVYYCAARQSLSSAFDYWGQGTQVTVSS” reads “low polyreactivity”.
Take “QVQLVESGGGLVQAGGSLRLSCAASGSIFPYYAMGWYRPAPGKERELVAAISSGGSTNYADSVKGRFTISRDNAKNTVYLEMNSLKPEDTAVYYCAARWSRLFRHRVNYWYDYWGQGTQVTVSS”: the “polyreactivity (PSR sort gate)” value was “high polyreactivity”.
Take “QVQLVESGGGLVQAGGSLRLSCAASGSIFPYYAMGWYRQAPGKERELVAAISSGGSTNYADSVKGRFTISRDNAKNTVYLQMNSLKPEDTAEYYCAARWSRIFRDRVKYWYDYWGQGTQVTVSS”: the “polyreactivity (PSR sort gate)” value is given as “low polyreactivity”.
“QVQLVESGGGLVQAGGSLRLSCAASGSIFPYYAMGWYRQAPGKERELVAAITYIGGDTYYADSVKGRFTISRDNAKNTVYLQMNSLKPEETEVYYCNRPSSLAWPWTGSFSRYDYWGQGTQVTVSS”: the “polyreactivity (PSR sort gate)” value was “low polyreactivity”.
The result for “QVQLVESGGGLVQAGGSLRLSCAASGSIFPYYAMGWYRQAPGKEWEFVAAISRRGGSTNYADSVKGRFTISRDTAKNTVYLQMNSLKPEDTAVYYCGKYTSYSRGYDYWGQGTQVTVSS” reads “high polyreactivity”; that for “QVQLVESGGGLVQAGGSLRLSCAASGSIFPYYAMGWYRQSPGKERELVASSNQSDGTTYYADSVKGRFTISRDNAKNTVYLQMNSLKPEDTAVYYCAADTTLQAFIRYRPIGSYDSWGQGTQVTVSS”, “low polyreactivity”.
The entry for “QVQLVESGGGLVQAGGSLRLSCAASGSIFPYYVMGWYRQAPGKERELVAAISWSGASTYYADSVKGRFTISRDNAKNTVYLQMNSLKPEDTAVYYCAKYSSHFENDYWGQGTQVTVSS” is “low polyreactivity”; for “QVQLVESGGGLVQAGGSLRLSCAASGSIFQAYAMGWYRQAPGKERELVASISSGGGTNYADSVKGRFTISRDNAKNTVYLQMNSLKPEDTAVYYCAADVYLVKYDYWGQGTQVTVSS” it is “low polyreactivity”; for “QVQLVESGGGLVQAGGSLRLSCAASGSIFQGYPMGWYRQAPGKERELVATIRWSSGSRTNYADSVKGRFTISRDNAKNTVYLQMNSLKPEDTAVYYCAAGSRRYKYDYWGQGTQVTVSS” it is “high polyreactivity”.
On to “QVQLVESGGGLVQAGGSLRLSCAASGSIFQHYAMGWYRQAPGKERELVAAISYDTTSTYYADSVKGLFTISRDNAKNTVYLQMNSLKPEDPAVYYCNTDPEVYGPFQYDYWGQGTQVTVSS”, for which the “polyreactivity (PSR sort gate)” value is “low polyreactivity”.
The entry for “QVQLVESGGGLVQAGGSLRLSCAASGSIFQHYAMGWYRQAPGKVRELVAAISSDTTSTYYADSVKGRFTISRDNAKNTVYLQMHSLKPEDTAVYYCNTYPEVYGPFQYDYWGQGTQVTVSS” is “low polyreactivity”; for “QVQLVESGGGLVQAGGSLRLSCAASGSIFQKNAMGWYRQAPGKERELVAVITRGGTSTYYADSVKGRFTISRDNAKNTVYLQMNSLKAEDTAVYSCAAKADKRLDYWGQGTQVTVSS” it is “low polyreactivity”.
Consider “QVQLVESGGGLVQAGGSLRLSCAASGSIFQPYAMGWYRQAPGKERELVAAINGRGGSTHYADSVKGRFTISRDNAKNTVYLQMNSLKPEDTAVYYCAARYYRDYRWYTYAYDYWGQGTQVTVSS”, for which the “polyreactivity (PSR sort gate)” value was “high polyreactivity”.
In the case of “QVQLVESGGGLVQAGGSLRLSCAASGSIFQQYAMGWYRQAPGKERELVASINTSGDGTYYADSVKGRFTISRDNAKNSVYLQMNSLKPEDTAVYYCAVEGIFEQLNRMDYWGQGTQVTVSS”, the “polyreactivity (PSR sort gate)” value is reported as “low polyreactivity”.
On to “QVQLVESGGGLVQAGGSLRLSCAASGSIFQRNAMGSYRQAPGKERELVAAITYSGGGTYYADSVKGRFTISRDNAKNTVYLQMNSLKPEDTAVYYCNADGPSTPWVDYGYWGQGTQVTVSS”, for which the “polyreactivity (PSR sort gate)” value is reported as “low polyreactivity”.
The result for “QVQLVESGGGLVQAGGSLRLSCAASGSIFQRNAMGWYRQAPGKERELVAAITYSGGGTYYADSVKGRFTISRDNAKNTVYLQMNSLKPEDTAVYYCAADYKSKYSGYIYDYWGQGTQVTVSS” reads “low polyreactivity”; that for “QVQLVESGGGLVQAGGSLRLSCAASGSIFQRYAMGWYRQAPGKEREFVAAISGRGGSTYYADSVKGRFTISRDNAKNTVYLQMNSLKPEDTAVYYCAADSSRFYGRPRYYYWGQGTQVTVSS”, “high polyreactivity”.
For “QVQLVESGGGLVQAGGSLRLSCAASGSIFQRYTMGWYRQAPGKERELVARISGRGGSTYYADSVKGRFTISRDNAKNTVYLQMKSLKPEDTAVYYCAADTGRYLDSNYWGQGTQVTVSS”, the “polyreactivity (PSR sort gate)” value is “high polyreactivity”.
For the sequence “QVQLVESGGGLVQAGGSLRLSCAASGSIFQSYTMGGYRQAPGKERELVAAINSGGRTNYADSVKGRFTITRDNAKYTVYLQMNSLKPEDTAVYYCAKRLSTRASFGEEDSWGQGTQVTVSS”, the “polyreactivity (PSR sort gate)” value was “low polyreactivity”.
In the case of “QVQLVESGGGLVQAGGSLRLSCAASGSIFQVYAMGWYRQAPGKEREFVAAISYSGGGTYYADSVKGRFTISRDNAKNSVYLQMNSLKPEDTAVYYCAADVSGWEYDYWGQGTQVTVSS”, the “polyreactivity (PSR sort gate)” value is “low polyreactivity”.
As to “QVQLVESGGGLVQAGGSLRLSCAASGSIFQVYAMGWYRQAPGKEREFVAAISYSGGGTYYADSVKGRFTISRDTAKNTVYLQMNSLKPEDSAVYYCAATEQYGRDSWSSYRIFPPYDDWGQGTQVTVSS”, the “polyreactivity (PSR sort gate)” value is “low polyreactivity”.
The result for “QVQLVESGGGLVQAGGSLRLSCAASGSIFQYNAMGWYRQAPGKERELVAAINGGGSTYYADSEKGRFTISRDNAKNTVYLQMNSLKPEDTAVYYCAADGGAYSYRGPGKFGIEDSWGQGTQVTVSS” reads “low polyreactivity”; that for “QVQLVESGGGLVQAGGSLRLSCAASGSIFRAYAMGWYRQAPGKERELVAAISWGGGSTSYADSVKGRFTISRDNAKNTVYLQMNSLKPEDTAVYYCNKVSLSKRRDYYWGQGTQVTVSS”, “high polyreactivity”.
With “QVQLVESGGGLVQAGGSLRLSCAASGSIFRDNAMGWYRQAPGKERELVASIRSSGGRTYYADSVKGRFTISRDNAKNTVYLQMNSLKPEDTAVYYCARRWYPVTPYARMYYWGQGTQVTVSS”, the “polyreactivity (PSR sort gate)” value is recorded as “low polyreactivity”.
The result for “QVQLVESGGGLVQAGGSLRLSCAASGSIFRFNAMGWYRPAPGKERELVAAISDSGGRTYYADSVKGRFTISRDNAKNTVYLQMNSLKPEDTAVYYCNAYVHTQGGDYWGQGTQVTVSS” reads “high polyreactivity”; that for “QVQLVESGGGLVQAGGSLRLSCAASGSIFRFNAMGWYRQAPGKERELVAAISDSGGRTYYADSVKGRFTISRDNAKNTVYLQMNSLKPEETAVYYCNAYVHSQGGDYWGQGTQVTVSS”, “high polyreactivity”.
As for “QVQLVESGGGLVQAGGSLRLSCAASGSIFRFNAMGWYRQAPGKERELVATISRSGGSTYYADSVKGRFTISRDNAKNTVYLQMNSLKPEDTAVYYCAADAYPTWPEYDGLYFKYDYWGQGTQVTVSS”, the “polyreactivity (PSR sort gate)” value is recorded as “high polyreactivity”.
Regarding “QVQLVESGGGLVQAGGSLRLSCAASGSIFRFYAMGWYIQAPGKERELVAGITWSGASTYYAVSVKGRFTISRDNAKNTVYLQMNSLKPEDTAVYYCAAKSLIVRYDSWGQGTQVTVSS”, the “polyreactivity (PSR sort gate)” value is “high polyreactivity”.
The result for “QVQLVESGGGLVQAGGSLRLSCAASGSIFRFYAMGWYRQAPGKERELVAGITWSGASTYYADSVKGRFTISRDNAKNTVYFQMNSLKPEDSAVYYCAAKSLIVRYDSWGQGTQVSVSS” reads “high polyreactivity”; that for “QVQLVESGGGLVQAGGSLRLSCAASGSIFRGNAMGWYRQAPGKEMELVAAINKSGGSTYYADSVKGRFTISRDNAKNTVYLQMNSLKPEDTAVYYCAAVYKRLQPYGYWGQGTQVTVSS”, “high polyreactivity”; that for “QVQLVESGGGLVQAGGSLRLSCAASGSIFRGNAMGWYRQAPGKERELVAAISKSGGSTYYADSVKGRFTISRDHAKNTVYLQMNSLKPEDTAVYYCAARTTYLYGMYYWGQGTQVTVSS”, “low polyreactivity”.
The entry for “QVQLVESGGGLVQAGGSLRLSCAASGSIFRGNAMGWYRQAPGKERELVARITWSGGRTYYADSVKGRFTISRDNAKNTVYLQLNSLKPEDTAVYYCAAQYYLYRRGYMWKYDYWGQGTQVTVSS” is “high polyreactivity”; for “QVQLVESGGGLVQAGGSLRLSCAASGSIFRGNAMGWYRQATGKERELVAAITSRASSTYYADSVKGRFTLSRDNAKNTVYLQMNSLKPEDTAVYYCAAKWVRSYYTFDHWGQGTQVTVSS” it is “high polyreactivity”.
The result for “QVQLVESGGGLVQAGGSLRLSCAASGSIFRGNVMGWYRQAPGKERELVAAISWSGGSTYYADSVKGRFTISRDNAKNTVYLQMNSLKPEDTAVYYCAVRVWGSARGMDYWGQGTQVTVSS” reads “high polyreactivity”; that for “QVQLVESGGGLVQAGGSLRLSCAASGSIFRGYAMGWYIQAPGKERELVAAITSRGGSTYYADSVKGRFTISRDNAKNTVYLQMNSLKPEDTEVYYCNKRVYYPWGQGTQVTVSS”, “high polyreactivity”.
